Assay results published in patent publication US20250042994A1 (HAINAN SIMCERE ZAIMING PHARMACEUTICAL, published 2025).
Values belong to the binder of their own block, whether it stands above or below them.

Tests used:
[1] = target: T1, human CD19 exon1-3-His tag protein (human, UniProt P15391 20-186, limits assumed); assay: ELISA on coated human CD19 exon 1-3-His
T1 construct: membrane-distal part of the extracellular region, made in HEK293E cells; not shown: His tag
T1 sequence (looked up): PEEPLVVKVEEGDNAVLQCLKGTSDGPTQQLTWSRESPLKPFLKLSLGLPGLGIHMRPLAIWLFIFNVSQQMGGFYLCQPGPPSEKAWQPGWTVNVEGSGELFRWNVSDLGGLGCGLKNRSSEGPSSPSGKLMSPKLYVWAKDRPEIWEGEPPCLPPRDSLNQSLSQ

monkey CD19-His protein = target: T2, monkey CD19-His protein (monkey); assay: SPR Biacore, method of example 7.1, monkey CD19-His
T2 construct: bought protein; also called monkey CD19 protein
Description: A sample buffer and a running buffer were HBS-EP+ (10 mM HEPES, 150 mM NaCl, 3 mM EDTA and 0.05% surfactant P20) (GE Healthcare; BR-1006-69). The flow-through cell was set to 25° C. The sample block was set to 16° C. Both were pretreated with the running buffer. In each cycle, an antibody to be detected was first captured with a Protein A chip, and then a single concentration of CD19 antigen protein was injected. The binding and dissociation processes of the antibody and the antigen protein were recorded, and finally Glycine pH 1.5 (GE Healthcare; BR-1003-54) was used to complete chip regeneration. The binding was measured by injecting different concentrations of recombinant human CD19-His proteins in a solution for 240 s with a flow rate of 30 μl/min. The concentration started from 200 nM (see the detailed results for the actual concentration in the test) and was diluted at 1:1, making a total of 5 concentrations. The dissociation phase was monitored for up to 600 s and was triggered by switching from sample solution to running buffer. The surface was regenerated by washing with a 10 mM glycine solution (pH 1.5) for 30 s at a flow rate of 30 μl/min. Bulk refractive index difference was corrected by subtracting the response obtained from the goat anti-human Fc surface. Blank injection was also subtracted (=double reference). For calculation of apparent KD and other kinetic parameters, Langmuir 1:1 model was used.
According to the method in example 7.1, the affinity of the chimeric antibodies to monkey CD19 (ACROBiosystems, catalog number: 90051-C08H) protein was determined.

Human CD19-his protein = target: T3, Human CD19-his protein (human, UniProt P15391 20-291); assay: SPR Biacore, Ab captured on Protein A, CD19-His analyte
T3 construct: bought protein; also called recombinant human CD19-His; CD19 full-length protein; not shown: His tag
T3 sequence (looked up): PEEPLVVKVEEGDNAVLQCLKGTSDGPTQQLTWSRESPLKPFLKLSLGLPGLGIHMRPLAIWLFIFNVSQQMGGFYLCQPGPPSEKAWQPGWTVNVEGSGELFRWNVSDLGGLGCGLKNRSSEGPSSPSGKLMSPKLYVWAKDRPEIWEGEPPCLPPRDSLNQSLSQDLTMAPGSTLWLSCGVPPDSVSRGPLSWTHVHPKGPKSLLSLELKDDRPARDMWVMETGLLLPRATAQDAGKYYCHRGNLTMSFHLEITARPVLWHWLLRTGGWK
Procedure, shortened: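 Antibodies were captured on a Protein A chip at 25 °C in HBS-EP+. Human CD19-His was injected for 240 s at 30 μl/min at 5 concentrations from 200 nM (1:1 dilutions), with dissociation up to 600 s. Data were double-referenced and fitted to a Langmuir 1:1 model for apparent KD.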

human CD19 on Raji cells = target: T4, human CD19 on Raji cells (human, UniProt P15391 20-556); assay: FACS on Raji cells
T4 construct: whole, on cells
T4 sequence (looked up): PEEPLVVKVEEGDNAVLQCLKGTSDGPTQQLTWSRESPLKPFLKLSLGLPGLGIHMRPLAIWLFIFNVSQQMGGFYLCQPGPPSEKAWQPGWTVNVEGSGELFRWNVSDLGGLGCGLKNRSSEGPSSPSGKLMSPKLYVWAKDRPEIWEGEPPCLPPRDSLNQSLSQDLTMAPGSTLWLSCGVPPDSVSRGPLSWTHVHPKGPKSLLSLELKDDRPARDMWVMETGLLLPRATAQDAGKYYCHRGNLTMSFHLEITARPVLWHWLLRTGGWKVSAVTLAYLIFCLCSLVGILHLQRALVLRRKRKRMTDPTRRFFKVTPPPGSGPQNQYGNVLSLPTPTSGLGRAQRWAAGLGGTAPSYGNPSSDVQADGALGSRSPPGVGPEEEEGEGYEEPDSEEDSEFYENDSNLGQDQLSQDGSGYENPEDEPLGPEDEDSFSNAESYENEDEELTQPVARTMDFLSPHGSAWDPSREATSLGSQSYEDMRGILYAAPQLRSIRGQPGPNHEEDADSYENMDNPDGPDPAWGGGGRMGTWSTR

[2] = target: T5, cynomolgus monkey CD19 on peripheral blood B cells (cynomolgus monkey (Macaca fascicularis), UniProt A0A2K5W8L9 20-557); assay: FACS, cynomolgus PBMC, CD20+ B cells
T5 construct: whole, on cells; also called cynomolgus monkey B cells
T5 sequence: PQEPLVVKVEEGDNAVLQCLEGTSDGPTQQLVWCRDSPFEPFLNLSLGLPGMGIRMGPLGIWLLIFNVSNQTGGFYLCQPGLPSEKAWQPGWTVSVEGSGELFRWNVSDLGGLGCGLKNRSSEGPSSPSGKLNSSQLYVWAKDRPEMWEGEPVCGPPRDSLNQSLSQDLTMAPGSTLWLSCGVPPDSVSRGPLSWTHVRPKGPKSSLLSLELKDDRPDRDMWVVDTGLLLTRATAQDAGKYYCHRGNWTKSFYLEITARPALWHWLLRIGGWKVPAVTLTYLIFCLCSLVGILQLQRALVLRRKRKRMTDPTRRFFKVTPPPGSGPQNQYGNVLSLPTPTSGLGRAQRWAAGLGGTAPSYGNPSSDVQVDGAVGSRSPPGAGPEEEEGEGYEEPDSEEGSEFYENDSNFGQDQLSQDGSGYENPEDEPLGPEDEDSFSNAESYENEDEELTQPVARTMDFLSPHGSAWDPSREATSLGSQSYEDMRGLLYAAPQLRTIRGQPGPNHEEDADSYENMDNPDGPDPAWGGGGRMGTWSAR

[3] = target: T6, human CD19 on CHO-K1-human CD19 cells (human, UniProt P15391 20-556); assay: FACS on CHO-K1-human CD19 cells
T6 construct: whole, on cells; also called CHO-K1-human CD19-2C8
T6 sequence (looked up): T4 sequence (looked up)

[4] = target: T7, monkey CD19 on HEK293T-monkey CD19 cells (monkey); assay: FACS on HEK293T-monkey CD19 cells
T7 construct: whole, on cells
Procedure, shortened: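 Cells blocked in PBS + 2% (w/w) BSA at 2×10⁶ cells/ml, then incubated with test antibody on ice for 2 h. After washes, binding read by flow cytometry as mean fluorescence intensity (MFI). EC50 from fitted MFI curves. Parental HEK293T cells run by the same method.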

monkey CD19 protein [5] = target: T8, monkey CD19 protein (monkey); assay: ELISA, coated monkey CD19 protein
T8 construct: also called monkey CD19-His protein
Description: (§1) Human CD19-his protein (purchased from ACROBiosystems, catalog number: CD9-H52H2) was diluted with PBS to a final concentration of 4 μg/mL, and then added to a 96-well ELISA plate at 100 μl/well. The plate was sealed with a plastic film and incubated overnight at 4° C., the plate was washed 2 times with PBS the next day, and then a blocking solution [PBS+2% (w/w) BSA] was added for blocking at room temperature for 2 h. The blocking solution was poured off, and 100 nM gradiently diluted CD19 chimeric antibody or control antibody was added at 50 μl/well. After incubation at 37° C. for 2 h, the plate was washed 3 times with PBS. […] TMB substrate was added at 50 μl/well, and incubated at room temperature for 10 min, and then a stop solution (1.0 N HCl) was added at 50 μl/well. The OD450 nm values were read by an ELISA microplate reader (Multimode Plate Reader, EnSight, purchased from Perkin Elmer).
(§2) In order to detect the species cross-binding activity of the chimeric antibodies, an ELISA plate was coated with commercial murine CD19 (ACROBiosystems, catalog number: 50510-M08H) and monkey CD19 (ACROBiosystems, catalog number: 90051-C08H), respectively, and the ELISA detection was performed according to the method in example 5.1.

monkey CD19 protein [6] = target: T8, monkey CD19 protein; assay: ELISA on coated monkey CD19-His
Description: as §1, §2

- EC50 (read off the curve) [1]: ~0.1 nM
- Kd (monkey CD19-His protein): 0.00759 nM
- koff (monkey CD19-His protein): 1.4e-07 s⁻¹
- kon (monkey CD19-His protein): 18400 M⁻¹ s⁻¹
- Kd (Human CD19-his protein): 2 nM
- koff (Human CD19-his protein): 0.000169 s⁻¹
- kon (Human CD19-his protein): 84400 M⁻¹ s⁻¹
B1: F3.77.6 (antibody, human IgG1, V domains shown)
VH: EFQLQQSGPELVKPGASVKISCKASGYSFTDYNMNWVKQSNGKSLEWIGTINPNYITSYNQKFKGKATLTVDQSSSTAYMQLNSLTSEDSAVYYCAGDYKGYWGQGTTLTVSS
VL: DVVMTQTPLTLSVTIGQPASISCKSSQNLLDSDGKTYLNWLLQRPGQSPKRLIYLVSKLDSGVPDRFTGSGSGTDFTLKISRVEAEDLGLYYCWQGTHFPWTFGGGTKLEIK
notes: human-murine chimeric antibody, human IgG1 constant

- EC50 (human CD19 on Raji cells): 23.4 nM
- Maximum mean fluorescence intensity (human CD19 on Raji cells): 16600
- Proportion of chimeric antibody positive cells to B cells (%) at 1 nM [2]: 12%
- Proportion of chimeric antibody positive cells to B cells (%) at 10 nM [2]: 34%
- Proportion of chimeric antibody positive cells to B cells (%) at 100 nM [2]: 76%
- EC50 [3]: 14.7 nM
- Maximum mean fluorescence intensity [3]: 46600
- EC50 [4]: 13 nM
- Maximum mean fluorescence intensity [4]: 80600
- OD450 at 0.0001 nM (monkey CD19 protein [5]): 0.06 OD450
- OD450 at 0.001 nM (monkey CD19 protein [5]): 0.06 OD450
- OD450 at 0.01 nM (monkey CD19 protein [5]): 0.06 OD450
- OD450 at 0.10 nM (monkey CD19 protein [5]): 0.12 OD450
- OD450 at 1.00 nM (monkey CD19 protein [5]): 0.71 OD450
- OD450 at 10 nM (monkey CD19 protein [5]): 1.25 OD450
- OD450 at 100 nM (monkey CD19 protein [5]): 1.16 OD450
- EC50 (read off the curve) (monkey CD19 protein [6]): ~0.8 nM
B2: F5.11.2 (antibody, human IgG1, V domains shown)
VH: EVQLVESGGDLVKPGGSLKLSCAASGFTFSSYGMSWVRQTPDKRLEWVATISHGGSYTHYPDSVKGRFTISRDNAKNTLYLQMNSLKSEDTAMYYCVRLPITTVEAPYFFDYWGQGTTLTVSS
VL: DIQMTQTTSSLSASLGDRVTISCRASQDIRNYLNWYQQKPDGTVKLLIYYTSILHSGVPSRFSGSGSGTDYSLTINNLEQEDVATYFCQQGNTLYTFGGGTEVELR
notes: human-murine chimeric antibody, human IgG1

- EC50 (read off the curve) [1]: ~0.03 nM
- Kd (monkey CD19-His protein): 0.803 nM
- koff (monkey CD19-His protein): 5.62e-05 s⁻¹
- kon (monkey CD19-His protein): 70000 M⁻¹ s⁻¹
- Kd (Human CD19-his protein): 1.99 nM
- koff (Human CD19-his protein): 0.000138 s⁻¹
- kon (Human CD19-his protein): 69300 M⁻¹ s⁻¹
B3: F3.124.7 (antibody, human IgG1, V domains shown)
VH: EVQLQQSGPVLVKPGASVKMSCKASGYTFTDYYMNWVKQRHGKSLEWIGISNPYNGGTSYNQKFKDKATLTVDKSSSTAYMELNSLTSEDSAVYYCAREGGTAQPTSGMDYWGQGTSVTVSS
VL: NIMMTQSPSSLAVSAGEKVTMSCKSSQSVLYSSNQKNYLAWYQQKPGQSPKLLIYWASTRESGVPDRFTGSGSGTDFTLTISSVQPEDPAVYYCHQYRSSYTFGGGTKLEIK
notes: as for B1
